One block for each binder: values may come before it. Starred links: 1 amine or outer side, 2 acyl side, 3 side chain; linkers in the order of their positions; H or OH if unused. Non-standard residues stand in square brackets, D forms with d. Primed or numbered codes have the meaning given here. *: point of attachment. AC4Abu = α-carboxy-4-aminobutyric acid, O=C(C(CCN[*:1])C(=O)[*:3])[*:2]; dBip = N[C@H](Cc1ccc(-c2ccccc2)cc1)C(=O)O; Oic = O=C(O)[C@@H]1C[C@@H]2CCCC[C@@H]2N1; Phe(4-Cl) = N[C@@H](Cc1ccc(Cl)cc1)C(=O)O; dPhe(4-Cl) = N[C@H](Cc1ccc(Cl)cc1)C(=O)O; Phe(4-I) = N[C@@H](Cc1ccc(I)cc1)C(=O)O; γGlu = O=C(O)[C@H](CCC(=O)[*:2])N[*:1]; HOOC(CH2)8CO = O=C(O)CCCCCCCCC(=O)*; d(β3hF) = N[C@@H](CC(=O)O)Cc1ccccc1; NMeR = CN[C@@H](CCCNC(=N)N)C(=O)O; Tridecanoyl = CCCCCCCCCCCCC(=O)*; hArg = N=C(N)NCCCC[C@H](N)C(=O)O; Cha = N[C@@H](CC1CCCCC1)C(=O)O; NMeL = CN[C@@H](CC(C)C)C(=O)O; AC4Abu″ = not defined here; β3hP = O=C(O)C[C@@H]1CCCN1; Nle = CCCC[C@H](N)C(=O)O; AEEA = NCCOCCOCC(=O)O; Aib = CC(C)(N)C(=O)O
Key:
Assay in all cases: cell-based or functional assay
rat APJ receptor [1] = molecular target: T1, rat APJ receptor (rat, UniProt Q9JHG3 1-377)
T1 sequence (looked up): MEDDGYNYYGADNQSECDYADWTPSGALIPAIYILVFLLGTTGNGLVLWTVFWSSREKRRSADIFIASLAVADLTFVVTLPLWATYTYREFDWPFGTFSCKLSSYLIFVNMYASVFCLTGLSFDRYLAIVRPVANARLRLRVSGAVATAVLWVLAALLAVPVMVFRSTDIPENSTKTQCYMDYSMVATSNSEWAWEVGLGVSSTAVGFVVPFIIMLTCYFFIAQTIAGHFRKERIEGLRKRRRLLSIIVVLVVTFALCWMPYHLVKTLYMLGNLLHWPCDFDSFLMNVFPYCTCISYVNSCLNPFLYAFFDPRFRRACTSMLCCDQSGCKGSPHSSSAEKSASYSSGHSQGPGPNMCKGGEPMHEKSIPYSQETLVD

human APJ receptor = molecular target: T2, human APJ receptor (human, UniProt P35414 1-380)
T2 sequence (looked up): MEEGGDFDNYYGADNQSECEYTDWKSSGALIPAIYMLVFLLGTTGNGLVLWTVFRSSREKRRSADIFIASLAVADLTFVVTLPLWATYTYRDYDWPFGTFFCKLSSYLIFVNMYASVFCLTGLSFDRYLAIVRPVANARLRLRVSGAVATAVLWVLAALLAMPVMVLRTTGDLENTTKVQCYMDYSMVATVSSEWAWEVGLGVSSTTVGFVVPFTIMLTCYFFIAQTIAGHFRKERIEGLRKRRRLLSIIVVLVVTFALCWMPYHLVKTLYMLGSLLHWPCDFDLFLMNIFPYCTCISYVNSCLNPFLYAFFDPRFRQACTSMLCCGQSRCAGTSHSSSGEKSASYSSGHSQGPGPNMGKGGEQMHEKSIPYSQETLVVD

rat APJ receptor [2] = molecular target: T3, rat APJ receptor (rat, UniProt Q9JHG3 1-377); remark: listed apart in the source
T3 sequence (looked up): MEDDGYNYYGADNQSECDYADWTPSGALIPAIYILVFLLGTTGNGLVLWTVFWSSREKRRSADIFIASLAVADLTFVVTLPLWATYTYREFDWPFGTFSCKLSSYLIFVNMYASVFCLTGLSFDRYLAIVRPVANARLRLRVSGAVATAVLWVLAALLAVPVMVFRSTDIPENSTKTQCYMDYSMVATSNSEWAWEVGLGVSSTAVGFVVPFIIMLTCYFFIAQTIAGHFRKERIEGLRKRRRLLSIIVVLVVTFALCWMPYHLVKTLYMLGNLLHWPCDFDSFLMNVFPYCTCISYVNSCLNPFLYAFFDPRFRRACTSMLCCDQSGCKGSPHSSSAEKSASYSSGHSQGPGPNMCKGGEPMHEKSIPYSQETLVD

EC50 Rat APJ Receptor (rat APJ receptor [1]): 0.528 nM
Binder: XXXQRPRLSHKGPXPF ({St}[AC4Abu][Aeea][Aeea]QRP[NMeArg]LSHKGP[Nle]P[4-Cl-F]{COOH}) [SEQ ID NO: 594]

EC50 Rat APJ Receptor (rat APJ receptor [1]): 0.215 nM
Binder: Tridecanoyl-[AC4Abu″][AEEA][AEEA][hArg][hArg]Q[hArg]P[NMeR][Cha]SHKG[Oic][Nle]P[Phe(4-Cl)]-OH (reading uncertain) [SEQ ID NO: 309]

EC50 Rat APJ Receptor (rat APJ receptor [1]): 0.128 nM
Binder: XXXQRPRLSHKGPXPF ({TDA}[AC4Abu][Aeea][Aeea][BhGln]RP[NMeArg]LSHKGP[Nle]P[4-Cl-F]{COOH}) [SEQ ID NO: 463]

EC50 Rat APJ Receptor (rat APJ receptor [1]): 0.467 nM
Binder: XXXQRPRLSHKGPXPF ({Subericacid}[AC4Abu][Aeea][Aeea]QRP[NMeArg]LSHKGP[Nle]P[4-Cl-F]{COOH}) [SEQ ID NO: 508]

EC50 Rat APJ Receptor (rat APJ receptor [1]): 1.39 nM
Binder: XXXQRPRLSHKGPXPF ({Succinicacid}[AC4Abu][Aeea][Aeea]QRP[NMeArg]LSHKGP[Nle]P[4-Cl-F]{COOH}) [SEQ ID NO: 497]

EC50 Rat APJ Receptor (rat APJ receptor [1]): 1.3 nM
B6: SEQ ID NO: 289 (peptide)
peptide: {HOOC(CH2)8CO}-[γGlu][AEEA][AEEA][hArg][dR]Q[hArg]P[dR][NMeL]SHKG[Oic][Phe(4-I)]P[dBip]-OH
SMILES: CC(C)C[C@@H](C(=O)N[C@@H](CO)C(=O)N[C@@H](Cc1c[nH]cn1)C(=O)N[C@@H](CCCCN)C(=O)NCC(=O)N1[C@H](C(=O)N[C@@H](Cc2ccc(I)cc2)C(=O)N2CCC[C@H]2C(=O)N[C@H](Cc2ccc(-c3ccccc3)cc2)C(=O)O)C[C@@H]2CCCC[C@@H]21)N(C)C(=O)[C@@H](CCCNC(=N)N)NC(=O)[C@@H]1CCCN1C(=O)[C@H](CCCCNC(=N)N)NC(=O)[C@H](CCC(N)=O)NC(=O)[C@@H](CCCNC(=N)N)NC(=O)[C@H](CCCCNC(=N)N)NC(=O)COCCOCCNC(=O)COCCOCCNC(=O)CC[C@H](NC(=O)CCCCCCCCC(=O)O)C(=O)O

Continued, binder first:

B1: Apelin polypeptide SEQ ID NO: 409 (peptide)
peptide: Tridecanoyl-[AC4Abu][AEEA][AEEA]QRP[NMeR][Cha]SHKG[Oic][Nle][Phe(4-Cl)]-OH
SMILES: CCCCCCCCCCCCC(=O)NCCC(C(=O)O)C(=O)NCCOCCOCC(=O)NCCOCCOCC(=O)N[C@@H](CCC(N)=O)C(=O)N[C@@H](CCCNC(=N)N)C(=O)N1CCC[C@H]1C(=O)N(C)[C@@H](CCCNC(=N)N)C(=O)N[C@@H](CC1CCCCC1)C(=O)N[C@@H](CO)C(=O)N[C@@H](Cc1c[nH]cn1)C(=O)N[C@@H](CCCCN)C(=O)NCC(=O)N1[C@H](C(=O)N[C@@H](CCCC)C(=O)N[C@@H](Cc2ccc(Cl)cc2)C(=O)O)C[C@@H]2CCCC[C@@H]21
EC50 Human APJ Receptor (GTPγS assay) (human APJ receptor): 1 nM | EC50 Rat APJ Receptor (GTPγS assay) (rat APJ receptor [2]): 0.511 nM

Binder: Tridecanoyl-[AC4Abu″][AEEA][AEEA]QRP[NMeR]LSH[Nle]GP[Nle]P[Phe(4-Cl)]-OH (reading uncertain) [Apelin polypeptide SEQ ID NO: 466]
EC50 Human APJ Receptor (GTPγS assay) (human APJ receptor): 0.0461 nM

B2: Apelin polypeptide SEQ ID NO: 380 (peptide)
peptide: Tridecanoyl-[γGlu][AEEA][AEEA]QRP[NMeR][Cha]SHKG[Oic][Nle]P[d(β3hF)]-OH
SMILES: CCCCCCCCCCCCC(=O)N[C@@H](CCC(=O)NCCOCCOCC(=O)NCCOCCOCC(=O)N[C@@H](CCC(N)=O)C(=O)N[C@@H](CCCNC(=N)N)C(=O)N1CCC[C@H]1C(=O)N(C)[C@@H](CCCNC(=N)N)C(=O)N[C@@H](CC1CCCCC1)C(=O)N[C@@H](CO)C(=O)N[C@@H](Cc1c[nH]cn1)C(=O)N[C@@H](CCCCN)C(=O)NCC(=O)N1[C@H](C(=O)N[C@@H](CCCC)C(=O)N2CCC[C@H]2C(=O)N[C@@H](CC(=O)O)Cc2ccccc2)C[C@@H]2CCCC[C@@H]21)C(=O)O
EC50 Human APJ Receptor (GTPγS assay) (human APJ receptor): 16.7 nM | EC50 Rat APJ Receptor (GTPγS assay) (rat APJ receptor [2]): 4.77 nM

Binder: Tridecanoyl-[AC4Abu″][AEEA][AEEA]QRP[NMeR][Cha]SHKG[Oic][Nle][Aib][Phe(4-Cl)]-OH (reading uncertain) [Apelin polypeptide SEQ ID NO: 382]
EC50 Human APJ Receptor (GTPγS assay) (human APJ receptor): 0.469 nM

Binder: Tridecanoyl-[AC4Abu″][AEEA][AEEA]QR[β3hP][NMeR][Cha]SHKG[Oic][Nle]P[Phe(4-Cl)]-OH (reading uncertain) [Apelin polypeptide SEQ ID NO: 441]
EC50 Human APJ Receptor (GTPγS assay) (human APJ receptor): 1.9 nM

B3: Apelin polypeptide SEQ ID NO: 390 (peptide)
peptide: Tridecanoyl-[γGlu][AEEA][AEEA]QRP[NMeR][Cha]SHKG[Oic][Nle]P[Phe(4-Cl)]-OH
SMILES: CCCCCCCCCCCCC(=O)N[C@@H](CCC(=O)NCCOCCOCC(=O)NCCOCCOCC(=O)N[C@@H](CCC(N)=O)C(=O)N[C@@H](CCCNC(=N)N)C(=O)N1CCC[C@H]1C(=O)N(C)[C@@H](CCCNC(=N)N)C(=O)N[C@@H](CC1CCCCC1)C(=O)N[C@@H](CO)C(=O)N[C@@H](Cc1c[nH]cn1)C(=O)N[C@@H](CCCCN)C(=O)NCC(=O)N1[C@H](C(=O)N[C@@H](CCCC)C(=O)N2CCC[C@H]2C(=O)N[C@@H](Cc2ccc(Cl)cc2)C(=O)O)C[C@@H]2CCCC[C@@H]21)C(=O)O
EC50 Human APJ Receptor (GTPγS assay) (human APJ receptor): 0.11 nM | EC50 Rat APJ Receptor (GTPγS assay) (rat APJ receptor [2]): 0.57 nM

B4: Apelin polypeptide SEQ ID NO: 410 (peptide)
peptide: Tridecanoyl-[AC4Abu][AEEA][AEEA]QRP[NMeR][Cha]SHKG[Oic][Nle][dPhe(4-Cl)]-OH
SMILES: CCCCCCCCCCCCC(=O)NCCC(C(=O)O)C(=O)NCCOCCOCC(=O)NCCOCCOCC(=O)N[C@@H](CCC(N)=O)C(=O)N[C@@H](CCCNC(=N)N)C(=O)N1CCC[C@H]1C(=O)N(C)[C@@H](CCCNC(=N)N)C(=O)N[C@@H](CC1CCCCC1)C(=O)N[C@@H](CO)C(=O)N[C@@H](Cc1c[nH]cn1)C(=O)N[C@@H](CCCCN)C(=O)NCC(=O)N1[C@H](C(=O)N[C@@H](CCCC)C(=O)N[C@H](Cc2ccc(Cl)cc2)C(=O)O)C[C@@H]2CCCC[C@@H]21
EC50 Human APJ Receptor (GTPγS assay) (human APJ receptor): 2.47 nM | EC50 Rat APJ Receptor (GTPγS assay) (rat APJ receptor [2]): 2.68 nM

Binder: XXXQRPRLSHKGPXPF ({TDA}[AC4Abu][Aeea][Aeea]Q[hArg]P[NMeArg][BLeu]SHKGP[Nle]P[4-Cl-F]{COOH}) [Apelin polypeptide SEQ ID NO: 383]
EC50 Human APJ Receptor (GTPγS assay) (human APJ receptor): 0.535 nM

B5: Apelin polypeptide SEQ ID NO: 381 (peptide)
peptide: Tridecanoyl-[γGlu][AEEA][AEEA]QRP[NMeR][Cha]SHKG[Oic][Nle]P[dPhe(4-Cl)]-OH
SMILES: CCCCCCCCCCCCC(=O)N[C@@H](CCC(=O)NCCOCCOCC(=O)NCCOCCOCC(=O)N[C@@H](CCC(N)=O)C(=O)N[C@@H](CCCNC(=N)N)C(=O)N1CCC[C@H]1C(=O)N(C)[C@@H](CCCNC(=N)N)C(=O)N[C@@H](CC1CCCCC1)C(=O)N[C@@H](CO)C(=O)N[C@@H](Cc1c[nH]cn1)C(=O)N[C@@H](CCCCN)C(=O)NCC(=O)N1[C@H](C(=O)N[C@@H](CCCC)C(=O)N2CCC[C@H]2C(=O)N[C@H](Cc2ccc(Cl)cc2)C(=O)O)C[C@@H]2CCCC[C@@H]21)C(=O)O
EC50 Human APJ Receptor (GTPγS assay) (human APJ receptor): 6.12 nM | EC50 Rat APJ Receptor (GTPγS assay) (rat APJ receptor [2]): 5.42 nM

Binder: XXXQRPRLSHKGPXPF ({TDA}[AC4Abu][Aeea][Aeea]QR[aMePro][hArg][aMeLeu]SHKGP[Nle]P[4-Cl-F]{COOH}) [Apelin polypeptide SEQ ID NO: 482]
EC50 Human APJ Receptor (GTPγS assay) (human APJ receptor): 0.0862 nM

Binder: Tridecanoyl-[γGlu][AEEA][AEEA][dQ]RP[NMeR][Cha]SHKG[Oic][Nle][Aib][Phe(4-Cl)]-OH [Apelin polypeptide SEQ ID NO: 540]
EC50 Human APJ Receptor (GTPγS assay) (human APJ receptor): 0.41 nM
